In patent US7947468B2, “Methods” (Medical Research Council, priority 2007, dated 2011) one finds Km and Vmax data, which are given here for two proteins.

Substrate in data set [1]: CC[C@H](C)[C@H](NC(=O)[C@H](CCC(N)=O)NC(=O)[C@H](CCCNC(=N)N)NC(=O)[C@H](CC(C)C)NC(=O)[C@@H](NC(=O)[C@H](CCCCN)NC(=O)[C@H](Cc1ccc(O)cc1)NC(=O)[C@H](CCCCN)NC(=O)[C@H](CC(=O)O)NC(=O)[C@H](CCCNC(=N)N)NC(=O)CNC(=O)[C@H](CC(C)C)NC(=O)[C@@H](N)CCCNC(=N)N)[C@@H](C)O)C(=O)N[C@@H](CCCNC(=N)N)C(=O)N[C@@H](CCC(N)=O)C(=O)O
Nature of the data set: Assay of LRRK2 using LRRKtide as substrate (non-mutated enzyme). The data set is classed as biochemical, human. The note with it: other: non-mutated GST-LRRK2[1326-2527], varying LRRKtide, 0.1 mM ATP, 30 min 30° C. The method, then:
(§1) Assay of LRRK2 using LRRKtide as substrate. Assays were set up in a total volume of 50 μl of Buffer A containing 0.5-0.7 μg of either wild type or mutant forms LRRK2, 10 mM MgCl2 and 0.1 mM [γ^32P]-ATP (300 cpm/pmol) in the presence of 300 μM or the indicated concentration of LRRKtide (RLGRDKYKTLRQIRQ; SEQ ID NO:1) peptide substrate. After incubation for 30 min at 30° C., reactions were terminated by applying 40 μl of the reaction mixture onto P81 phosphocellulose paper and phosphorylation of LRRKtide was quantified following washing the P81 phosphocellulose in 50 mM phosphoric acid and Cherenkov counting. One Unit (U) of LRRK2 activity was defined as the amount of enzyme that catalysed the incorporation of 1 nmol of ^32P into LRRKtide. Km and Vmax parameters were determined by performing the assay described above using varying concentration of LRRKtide. The Km and Vmax parameters were calculated using the Graph-Pad prism programme.

Substrate in data set [2]: CC[C@H](C)[C@H](NC(=O)[C@H](CCC(N)=O)NC(=O)[C@H](CCCNC(=N)N)NC(=O)[C@H](CC(C)C)NC(=O)[C@@H](NC(=O)[C@H](CCCCN)NC(=O)[C@H](Cc1ccc(O)cc1)NC(=O)[C@H](CCCCN)NC(=O)[C@H](CC(=O)O)NC(=O)[C@H](CCCNC(=N)N)NC(=O)CNC(=O)[C@H](CC(C)C)NC(=O)[C@@H](N)CCCNC(=N)N)[C@@H](C)O)C(=O)N[C@@H](CCCNC(=N)N)C(=O)N[C@@H](CCC(N)=O)C(=O)O
Nature of the data set: Assay of LRRK2 using LRRKtide as substrate (G2019S mutant). The data set is classed as biochemical, human. The note with it: other: GST-LRRK2[1326-2527, G2019S], varying LRRKtide, 0.1 mM ATP, 30 min 30° C. On the procedure:
as §1

B1: GST-LRRK2[1326-2527] (Homo sapiens) (protein)
chain: LKKAVPYNRMKLMIVGNTGSGKTTLLQQLMKTKKSDLGMQSATVGIDVKDWPIQIRDKRKRDLVLNVWDFAGREEFYSTHPHFMTQRALYLAVYDLSKGQAEVDAMKPWLFNIKARASSSPVILVGTHLDVSDEKQRKACMSKITKELLNKRGFPAIRDYHFVNATEESDALAKLRKTIINESLNFKIRDQLVVGQLIPDCYVELEKIILSERKNVPIEFPVIDRKRLLQLVRENQLQLDENELPHAVHFLNESGVLLHFQDPALQLSDLYFVEPKWLCKIMAQILTVKVEGCPKHPKGIISRRDVEKFLSKKRKFPKNYMSQYFKLLEKFQIALPIGEEYLLVPSSLSDHRPVIELPHCENSEIIIRLYEMPYFPMGFWSRLINRLLEISPYMLSGRERALRPNRMYWRQGIYLNWSPEAYCLVGSEVLDNHPESFLKITVPSCRKGCILLGQVVDHIDSLMEEWFPGLLEIDICGEGETLLKKWALYSFNDGEEHQKILLDDLMKKAEEGDLLVNPDQPRLTIPISQIAPDLILADLPRNIMLNNDELEFEQAPEFLLGDGSFGSVYRAAYEGEEVAVKIFNKHTSLRLLRQELVVLCHLHHPSLISLLAAGIRPRMLVMELASKGSLDRLLQQDKASLTRTLQHRIALHVADGLRYLHSAMIIYRDLKPHNVLLFTLYPNAAIIAKIADYGIAQYCCRMGIKTSEGTPGFRAPEVARGNVIYNQQADVYSFGLLLYDILTTGGRIVEGLKFPNEFDELEIQGKLPDPVKEYGCAPWPMVEKLIKQCLKENPQERPTSAQVFDILNSAELVCLTRRILLPKNVIVECMVATHHNSRNASIWLGCGHTDRGQLSFLDLNTEGYTSEEVADSRILCLALVHLPVEKESWIVSGTQSGTLLVINTEDGKKRHTLEKMTDSVTCLYCNSFSKQSKQKNFLLVGTADGKLAIFEDKTVKLKGAAPLKILNIGNVSTPLMCLSESTNSTERNVMWGGCGTKIFSFSNDFTIQKLIETRTSQLFSYAAFSDSNIITVVVDTALYIAKQNSPVVEVWDKKTEKLCGLIDCVHFLREVMVKENKESKHKMSYSGRVKTLCLQKNTALWIGTGGGHILLLDLSTRRLIRVIYNFCNSVRVMMTAQLGSLKNVMLVLGYNRKNTEGTQKQKEIQSCLTVWDINLPHEVQNLEKHIEVRKELAEKMRRTSVE
notes: phosphorylated by both non-mutated GST-LRRK2[1326-2527] and GST-LRRK2[1326-2527, G2019S]; made in house; host or cells: HEK 293 cells, pEBG-2T vector
What is called Km is the substrate concentration at which the rate is half of its maximum. B1: the Km in data set [1] amounted to 200 µM.

B2: GST-LRRK2[1326-2527, G2019S] (Homo sapiens; G2019S) (protein)
chain: LKKAVPYNRMKLMIVGNTGSGKTTLLQQLMKTKKSDLGMQSATVGIDVKDWPIQIRDKRKRDLVLNVWDFAGREEFYSTHPHFMTQRALYLAVYDLSKGQAEVDAMKPWLFNIKARASSSPVILVGTHLDVSDEKQRKACMSKITKELLNKRGFPAIRDYHFVNATEESDALAKLRKTIINESLNFKIRDQLVVGQLIPDCYVELEKIILSERKNVPIEFPVIDRKRLLQLVRENQLQLDENELPHAVHFLNESGVLLHFQDPALQLSDLYFVEPKWLCKIMAQILTVKVEGCPKHPKGIISRRDVEKFLSKKRKFPKNYMSQYFKLLEKFQIALPIGEEYLLVPSSLSDHRPVIELPHCENSEIIIRLYEMPYFPMGFWSRLINRLLEISPYMLSGRERALRPNRMYWRQGIYLNWSPEAYCLVGSEVLDNHPESFLKITVPSCRKGCILLGQVVDHIDSLMEEWFPGLLEIDICGEGETLLKKWALYSFNDGEEHQKILLDDLMKKAEEGDLLVNPDQPRLTIPISQIAPDLILADLPRNIMLNNDELEFEQAPEFLLGDGSFGSVYRAAYEGEEVAVKIFNKHTSLRLLRQELVVLCHLHHPSLISLLAAGIRPRMLVMELASKGSLDRLLQQDKASLTRTLQHRIALHVADGLRYLHSAMIIYRDLKPHNVLLFTLYPNAAIIAKIADYSIAQYCCRMGIKTSEGTPGFRAPEVARGNVIYNQQADVYSFGLLLYDILTTGGRIVEGLKFPNEFDELEIQGKLPDPVKEYGCAPWPMVEKLIKQCLKENPQERPTSAQVFDILNSAELVCLTRRILLPKNVIVECMVATHHNSRNASIWLGCGHTDRGQLSFLDLNTEGYTSEEVADSRILCLALVHLPVEKESWIVSGTQSGTLLVINTEDGKKRHTLEKMTDSVTCLYCNSFSKQSKQKNFLLVGTADGKLAIFEDKTVKLKGAAPLKILNIGNVSTPLMCLSESTNSTERNVMWGGCGTKIFSFSNDFTIQKLIETRTSQLFSYAAFSDSNIITVVVDTALYIAKQNSPVVEVWDKKTEKLCGLIDCVHFLREVMVKENKESKHKMSYSGRVKTLCLQKNTALWIGTGGGHILLLDLSTRRLIRVIYNFCNSVRVMMTAQLGSLKNVMLVLGYNRKNTEGTQKQKEIQSCLTVWDINLPHEVQNLEKHIEVRKELAEKMRRTSVE
notes: made in house; host or cells: HEK 293 cells, pEBG-2T vector
With B2, in data set [2], the Km was found to be 200 µM and the Vmax is 10 U/mg.
